Data set [1] deals with HeLa Kyoto. Put plainly: solubility change mitosis vs G1/S (difference of NP-40 vs SDS log2 ratios) (log2 ratio difference); higher = more soluble in mitosis.
Data set [2] has as its system HeLa Kyoto. Put plainly: solubility in G1/S (NP-40 vs SDS abundance) (log2 ratio); higher = more soluble. The settings on record: cell cycle stage: G1/S.
The test system of data set [3] is HeLa Kyoto. Briefly: thermal stability score vs G1/S (z-score of summed log2 fold changes over temperatures); higher = more thermally stable than in G1/S.
The test system of data set [4] is HeLa Kyoto. Briefly: melting temperature (median over replicates), in situ; higher = more thermally stable.
The mark [5] stands for this setting: cell cycle stage: early G1 (4.5 h after nocodazole release).
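Wherever melting temperature (median over replicates), in situ is given: HeLa Kyoto cells synchronized by double thymidine or nocodazole block, proteins quantified by TMT10plex mass spectrometry, three independent biological replicates.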
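Wherever solubility change mitosis vs G1/S (difference of NP-40 vs SDS log2 ratios) is given: synchronized HeLa Kyoto cells (double thymidine block for G1/S, nocodazole release for mitosis), protein amounts in NP-40 versus SDS lysates quantified by mass spectrometry, three biological replicates.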
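Wherever solubility in G1/S (NP-40 vs SDS abundance) is given: HeLa Kyoto cells arrested at G1/S by double thymidine block, proteins quantified by TMT10plex mass spectrometry in mild NP-40 versus SDS extracts, three biological replicates.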
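Wherever thermal stability score vs G1/S (z-score of summed log2 fold changes over temperatures) is given: synchronized HeLa Kyoto cells, proteins quantified by TMT10plex mass spectrometry, three biological replicates, mitosis taken 0.5 h after nocodazole release, G1/S directly after double thymidine block.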

ACP2, sequence (chain, as listed by the source): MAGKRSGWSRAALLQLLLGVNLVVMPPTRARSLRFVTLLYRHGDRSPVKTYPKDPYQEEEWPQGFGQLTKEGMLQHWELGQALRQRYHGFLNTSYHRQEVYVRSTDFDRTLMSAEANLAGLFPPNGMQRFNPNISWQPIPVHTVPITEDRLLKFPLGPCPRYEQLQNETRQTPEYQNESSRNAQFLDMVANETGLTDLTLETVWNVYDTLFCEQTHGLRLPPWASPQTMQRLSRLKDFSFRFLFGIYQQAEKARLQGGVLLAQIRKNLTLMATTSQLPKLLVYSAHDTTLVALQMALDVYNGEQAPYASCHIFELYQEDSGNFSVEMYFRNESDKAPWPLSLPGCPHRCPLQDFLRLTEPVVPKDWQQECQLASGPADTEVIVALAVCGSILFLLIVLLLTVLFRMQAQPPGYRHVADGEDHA

As to TSR3, in the data set with HeLa Kyoto [1], the “solubility change mitosis (log2)” value is -0.12. The “solubility in G1/S (log2)” value in the data set with HeLa Kyoto [2] was 0.0751. Moreover, the values for the thermal stability score with HeLa Kyoto [3] (setting [5]) and in the data set on HeLa Kyoto [3] (cell cycle stage: mitosis) were 0.927 and -0.253, respectively. The melting temperature with HeLa Kyoto [4] (cell cycle stage: G1/S) and in the data set with HeLa Kyoto [4] (cell cycle stage: mitosis) was 54.3 °C throughout.
Consider “MAPPSVFAEVPQAQPVLVFKLTADFREDPDPRKVNLGVGAYRTDDCHPWVLPVVKKVEQKIANDNSLNHEYLPILGLAEFRSCASRLALGDDSPALKEKRVGGVQSLGGTGALRIGADFLARWYNGTNNKNTPVYVSSPTWENHNAVFSAAGFKDIRSYRYWDAEKRGLDLQGFLNDLENAPEFSIVVLHACAHNPTGIDPTPEQWKQIASVMKHRFLFPFFDSAYQGFASGNLERDAWAIRYFVSEGFEFFCAQSFSKNFGLYNERVGNLTVVGKEPESILQVLSQMEKIVRITWSNPPAQGARIVASTLSNPELFEEWTGNVKTMADRILTMRSELRARLEALKTPGTWNHITDQIGMFSFTGLNPKQVEYLVNEKHIYLLPSGRINVSGLTTKNLDYVATSIHEAVTKIQ [GOT1]”, for which, in the data set on HeLa Kyoto [1], the “solubility change mitosis (log2)” value was -0.116. The “solubility in G1/S (log2)” value in the data set with HeLa Kyoto [2] came to 0.34. In addition, the thermal stability score in the data set on HeLa Kyoto [3] (setting [5]) is -1.19; in the data set on HeLa Kyoto [3] (cell cycle stage: mitosis), -1.58. Moreover, the melting temperature in the data set on HeLa Kyoto [4] (cell cycle stage: G1/S) came to 58.1 °C; in the data set with HeLa Kyoto [4] (cell cycle stage: mitosis), 64.1 °C.
Regarding “MTVFFKTLRNHWKKTTAGLCLLTWGGHWLYGKHCDNLLRRAACQEAQVFGNQLIPPNAQVKKATVFLNPAACKGKARTLFEKNAAPILHLSGMDVTIVKTDYEGQAKKLLELMENTDVIIVAGGDGTLQEVVTGVLRRTDEATFSKIPIGFIPLGETSSLSHTLFAESGNKVQHITDATLAIVKGETVPLDVLQIKGEKEQPVFAMTGLRWGSFRDAGVKVSKYWYLGPLKIKAAHFFSTLKEWPQTHQASISYTGPTERPPNEPEETPVQRPSLYRRILRRLASYWAQPQDALSQEVSPEVWKDVQLSTIELSITTRNNQLDPTSKEDFLNICIEPDTISKGDFITIGSRKVRNPKLHVEGTECLQASQCTLLIPEGAGGSFSIDSEEYEAMPVEVKLLPRKLQFFCDPRKREQMLTSPTQ [AGK]”, in the data set with HeLa Kyoto [1], the “solubility change mitosis (log2)” value is -0.034. In the data set with HeLa Kyoto [2], the “solubility in G1/S (log2)” value came out at 0.0337. Also, the thermal stability score is -0.493 in the data set with HeLa Kyoto [3] (setting [5]) and -1.02 in the data set on HeLa Kyoto [3] (cell cycle stage: mitosis). Further, the melting temperature in the data set with HeLa Kyoto [4] (cell cycle stage: G1/S) and in the data set on HeLa Kyoto [4] (cell cycle stage: mitosis) was 53.6 °C each time.
For the substance ACP2, in the data set on HeLa Kyoto [1], the “solubility change mitosis (log2)” value came out at 0.018. Besides, the “solubility in G1/S (log2)” value with HeLa Kyoto [2] is 0.434. Also, the thermal stability score in the data set with HeLa Kyoto [3] (setting [5]) is -1.34; in the data set with HeLa Kyoto [3] (cell cycle stage: mitosis), -0.755. Also, the melting temperature in the data set on HeLa Kyoto [4] (cell cycle stage: G1/S) was 56.1 °C; with HeLa Kyoto [4] (cell cycle stage: mitosis) it was 57.2 °C.
For “MATPSKKTSTPSPQPSKRALPRDPSSEVPSKRKNSAPQLPLLQSSGPFVEGSIVRISMENFLTYDICEVSPGPHLNMIVGANGTGKSSIVCAICLGLAGKPAFMGRADKVGFFVKRGCSRGMVEIELFRASGNLVITREIDVAKNQSFWFINKKSTTQKIVEEKVAALNIQVGNLCQFLPQDKVGEFAKLSKIELLEATEKSIGPPEMHKYHCELKNLREKEKQLETSCKEKTEYLQKMVQRNERYKQDVERFYERKRHLDLIEMLEAKRPWVEYENVRQEYEEVKLVRDRVKEEVRKLKEGQIPVTCRIEEMENERHNLEARIKEKATDIKEASQKCKQKQDVIERKDKHIEELQQALIVKQNEELDRQRRIGNTRKMIEDLQNELKTTENCENLQPQIDAITNDLRRIQDEKALCEGEIIDKRRERETLEKEKKSVDDHIVRFDNLMNQKEDKLRQRFRDTYDAVLWLRNNRDKFKQRVCEPIMLTINMKDNKNAKYIENHIPSNDLRAFVFESQEDMEVFLKEVRDNKKLRVNAVIAPKSSYADKAPSRSLNELKQYGFFSYLRELFDAPDPVMSYLCCQYHIHEVPVGTEKTRERIERVIQETRLKQIYTAEEKYVVKTSFYSNKVISSNTSLKVAQFLTVTVDLEQRRHLEEQLKEIHRKLQAVDSGLIALRETSKHLEHKDNELRQKKKELLERKTKKRQLEQKISSKLGSLKLMEQDTCNLEEEERKASTKIKEINVQKAKLVTELTNLIKICTSLHIQKVDLILQNTTVISEKNKLESDYMAASSQLRLTEQHFIELDENRQRLLQKCKELMKRARQVCNLGAEQTLPQEYQTQVPTIPNGHNSSLPMVFQDLPNTLDEIDALLTEERSRASCFTGLNPTIVQEYTKREEEIEQLTEELKGKKVELDQYRENISQVKERWLNPLKELVEKINEKFSNFFSSMQCAGEVDLHTENEEDYDKYGIRIRVKFRSSTQLHELTPHHQSGGERSVSTMLYLMALQELNRCPFRVVDEINQGMDPINERRVFEMVVNTACKENTSQYFFITPKLLQNLPYSEKMTVLFVYNGPHMLEPNTWNLKAFQRRRRRITFTQPS [SMC5]”, the “solubility change mitosis (log2)” value in the data set on HeLa Kyoto [1] is -0.0502. In addition, in the data set on HeLa Kyoto [2], the “solubility in G1/S (log2)” value is -0.139. In addition, the thermal stability score in the data set with HeLa Kyoto [3] (setting [5]) is 0.153; with HeLa Kyoto [3] (cell cycle stage: mitosis), 0.876. Also, the melting temperature with HeLa Kyoto [4] (cell cycle stage: G1/S) turned out to be 50.6 °C; in the data set on HeLa Kyoto [4] (cell cycle stage: mitosis), 50.7 °C.
Consider “MADLDSPPKLSGVQQPSEGVGGGRCSEISAELIRSLTELQELEAVYERLCGEEKVVERELDALLEQQNTIESKMVTLHRMGPNLQLIEGDAKQLAGMITFTCNLAENVSSKVRQLDLAKNRLYQAIQRADDILDLKFCMDGVQTALRSEDYEQAAAHTHRYLCLDKSVIELSRQGKEGSMIDANLKLLQEAEQRLKAIVAEKFAIATKEGDLPQVERFFKIFPLLGLHEEGLRKFSEYLCKQVASKAEENLLMVLGTDMSDRRAAVIFADTLTLLFEGIARIVETHQPIVETYYGPGRLYTLIKYLQVECDRQVEKVVDKFIKQRDYHQQFRHVQNNLMRNSTTEKIEPRELDPILTEVTLMNARSELYLRFLKKRISSDFEVGDSMASEEVKQEHQKCLDKLLNNCLLSCTMQELIGLYVTMEEYFMRETVNKAVALDTYEKGQLTSSMVDDVFYIVKKCIGRALSSSSIDCLCAMINLATTELESDFRDVLCNKLRMGFPATTFQDIQRGVTSAVNIMHSSLQQGKFDTKGIESTDEAKMSFLVTLNNVEVCSENISTLKKTLESDCTKLFSQGIGGEQAQAKFDSCLSDLAAVSNKFRDLLQEGLTELNSTAIKPQVQPWINSFFSVSHNIEEEEFNDYEANDPWVQQFILNLEQQMAEFKASLSPVIYDSLTGLMTSLVAVELEKVVLKSTFNRLGGLQFDKELRSLIAYLTTVTTWTIRDKFARLSQMATILNLERVTEILDYWGPNSGPLTWRLTPAEVRQVLALRIDFRSEDIKRLRL [COG4]”, for which the “solubility change mitosis (log2)” value in the data set with HeLa Kyoto [1] was -0.175. For the same substance, in the data set on HeLa Kyoto [2], the “solubility in G1/S (log2)” value was -0.0589. In addition, the thermal stability score is 0.91 in the data set with HeLa Kyoto [3] (setting [5]) and 1.79 with HeLa Kyoto [3] (cell cycle stage: mitosis). Besides, the results for the melting temperature in the data set on HeLa Kyoto [4] (cell cycle stage: G1/S) and in the data set on HeLa Kyoto [4] (cell cycle stage: mitosis) were 48.7 °C and 49.6 °C, respectively.

The values above are taken from the supplement of paper PMC5998384.
